Reference: PMC9105526, “Escherichia coli tRNA 2-Selenouridine Synthase (SelU): Elucidation of Substrate Specificity to Understand the Role of S-Geranyl-tRNA in the Conversion of 2-Thio- into 2-Selenouridines in Bacterial tRN”

Target: T1, MBP-SelU (tRNA 2-selenouridine synthase) (Escherichia coli, UniProt P33667 1-364)
T1 sequence: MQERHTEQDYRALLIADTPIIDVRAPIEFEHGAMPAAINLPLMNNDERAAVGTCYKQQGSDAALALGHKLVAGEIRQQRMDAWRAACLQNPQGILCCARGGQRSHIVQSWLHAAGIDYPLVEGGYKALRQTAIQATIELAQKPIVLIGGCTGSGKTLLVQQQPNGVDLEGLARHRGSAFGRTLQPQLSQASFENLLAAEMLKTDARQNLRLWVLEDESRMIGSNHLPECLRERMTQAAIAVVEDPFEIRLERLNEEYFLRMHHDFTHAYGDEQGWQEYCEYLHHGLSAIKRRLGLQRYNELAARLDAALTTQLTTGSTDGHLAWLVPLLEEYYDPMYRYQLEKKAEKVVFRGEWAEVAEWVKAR
Assay: MST (initial fluorescence); 10 mM Mg2+; MST: 2x assay buffer 20 mM Tricine pH 7.2, 20 mM MgCl2, 0.1% Tween-20 mixed with RNA (about 10 mM Tricine, 10 mM MgCl2, 0.05% Tween-20 final if 1:1); Cy3-RNA 50-75 nM; 30 min at room temperature, measured at 22 C
Details: protein: recombinant, tags: N-terminal MBP (42 kDa, pMAL-c5x), label: 5'-Cy3, hairpin

GUUGACUUUUAAUCAAC (structured_RNA, S-geranyl-2-thiouridine (geS2U) at nt 8 (tRNA position 34)) [Cy3-geS2U(34)-RNALys]
Kd (7-nt loop): 3.95 ± 0.4 µM

GUUGACUUUUAAUCAAC (structured_RNA) [Cy3-U(34)-RNALys]
Kd (7-nt loop CUUUUAA): 25.5 ± 1.8 µM

GUUGACUUUUAAUCAAC (structured_RNA, 2-thiouridine (S2U) at nt 8 (tRNA position 34)) [Cy3-S2U(34)-RNALys]
Kd (7-nt loop): 22.4 ± 1.6 µM

GUUGACUUUUAAUCAAC (structured_RNA, 2-selenouridine (Se2U) at nt 8 (tRNA position 34)) [Cy3-Se2U(34)-RNALys]
Kd (7-nt loop): 27.1 ± 1.5 µM
